# Columns and labels:
# [1] = target: ACE2-Fc (soluble human ACE2 fused to human IgG Fc) (human) (UniProt Q9BYF1); assay: BLI; ForteBio Octet QKe; ACE2-Fc (10 µg/mL) immobilized on Protein A biosensors; 2-fold serial dilutions of S-Trimer (22.5–36 µg/mL in PBS); KD by steady state analysis, 1:1 binding model
# [2] = target: S-Trimer (ectodomain of wild-type SARS-CoV-2 Spike protein fused to Trimer-Tag) (SARS-CoV-2 | human) (UniProt P0DTC2); assay: negative-stain electron microscopy; S-Trimer 25 μg/mL in PBS adjusted to pH 5.5; 1% uranyl formate pH 4.0; FEI Tecnai spirit, 120 KeV
# [3] = target: S-Trimer (ectodomain of wild-type SARS-CoV-2 Spike protein fused to Trimer-Tag) (SARS-CoV-2 | human) (UniProt P0DTC2); assay: SDS-PAGE under non-reducing and reducing conditions
# ACE2-Fc (soluble human ACE2 fused to human IgG Fc) (human), sequence (Q9BYF1 18-738): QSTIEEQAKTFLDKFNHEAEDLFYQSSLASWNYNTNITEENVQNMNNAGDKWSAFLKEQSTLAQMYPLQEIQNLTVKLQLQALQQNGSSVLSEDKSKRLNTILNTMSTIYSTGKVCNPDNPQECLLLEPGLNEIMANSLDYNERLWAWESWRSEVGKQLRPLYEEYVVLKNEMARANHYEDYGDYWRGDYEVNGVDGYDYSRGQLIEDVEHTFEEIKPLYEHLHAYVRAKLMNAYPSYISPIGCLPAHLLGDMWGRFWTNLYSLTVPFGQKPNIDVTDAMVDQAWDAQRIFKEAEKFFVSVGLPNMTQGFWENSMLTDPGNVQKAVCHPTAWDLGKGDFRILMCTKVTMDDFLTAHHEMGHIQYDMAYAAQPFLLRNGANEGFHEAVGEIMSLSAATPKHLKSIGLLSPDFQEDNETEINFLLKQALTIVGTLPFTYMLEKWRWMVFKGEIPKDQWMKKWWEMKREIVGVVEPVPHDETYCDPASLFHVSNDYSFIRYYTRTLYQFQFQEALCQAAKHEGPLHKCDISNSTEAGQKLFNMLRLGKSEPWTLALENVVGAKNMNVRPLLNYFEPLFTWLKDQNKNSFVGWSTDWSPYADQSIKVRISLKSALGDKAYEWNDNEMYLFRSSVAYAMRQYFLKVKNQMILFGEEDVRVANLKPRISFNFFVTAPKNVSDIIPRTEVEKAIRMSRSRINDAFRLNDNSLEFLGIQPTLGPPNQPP
substance,measurement,setting,value
S-Trimer (ectodomain of wild-type SARS-CoV-2 Spike protein fused to Trimer-Tag) (from UniProt P0DTC2;P02452),Kd,[1],1.33 nM
same,stoichiometry N,[2],3
same,stoichiometry N,[3],3

# Source: publication PMC7921634
